In series [1] the test system is A431 tumor xenografts. The experiment in a line: MicroPET imaging of tumor-bearing mice. It is filed as in vivo. The procedure:
(§1) The in vivo studies were carried out in adult female Balb/c nu/nu mice (21-25 g) (Möllegård, Denmark) with tumor xenografts. All animals were handled according to the guidelines by the Swedish Animal Welfare Agency, and the experiments were approved by the local Ethics Committee for Animal Research. The mice were injected subcutaneously with A431 tumor cells (approximately 7 million cells per tumor in 100 μl cell culture medium) in both front legs. The tumors were allowed to grow for 12-13 days before the experiments were performed, and had then reached a weight of 0.1-0.8 g.
Imaging was performed on a microPET R4 scanner (Concorde Microsystems, Inc.), with a computer-controlled bed and 10 cm transaxial and 8 cm axial field of view (FOV). […] After completion of the study the animals were decapitated under anesthesia and blood, liver, and kidney samples were collected for radioactivity measurements.
Scatter correction, random counts and dead time correction were all incorporated into the reconstruction algorithm. Radiation attenuation in each animal was measured with two rotating rod sources containing ^68 Ge/^68Ga before tracer injection and the images were corrected for radiation attenuation. […] Pharmacokinetic curves, representing the radioactivity concentrations (percentage of injected dose per gram of tissue), versus time after injection were determined accordingly. […]

The subject of series [2] is A431 tumor xenografts. Also on record: species or system Balb/c nu/nu mice. To be noted: mouse, in vivo, iv, 0.5 h. The method, then:
as §1
In order to estimate an influence of amount injected conjugate on uptake in tumors and normal tissues, a biodistribution study was performed. […] The mice were anesthetised by an intraperitoneal injection of a mixture of Rompun (1 mg/ml) and Ketalar (10 mg/ml), 0.2 ml per 10 g of animal weight, and killed by heart puncture. In addition to the tumors, blood, heart, pancreas, spleen, stomach, liver, kidneys, lungs, small and large intestine, muscle, bone and salivary gland were collected, weighed and measured in an automated gamma counter. The tails were also measured for radioactive content, in order to determine the accuracy of the injections. Organ values were calculated as percent of injected activity per g of organ (% IA/g).

For series [3], the system named is A431 cells. The experiment in a line: Cellular internalization by acid wash, A431 cells. It is filed as cell-based, human. From the text: (§2) The human squamous carcinoma cell line A431 (ATCC, CLR 1555, Rocksville, Md., USA) and the malignant glioma cell line U343MGaC12:6 (Westermark B, Magnusson A, Heldin C H. Effect of epidermal growth factor on membrane motility and cell locomotion in cultures of human clonal glioma cells. J Neurosci Res. 1982; 8(2-3): 491-507) (from now on denoted U343) were used in all cell experiments. This A431 cell line is reported to express approximately 2×10^6 EGFR per cell, and the U343 cell line express approximately 5.5×10^5 EGFR per cell. […]
(§3) Instead of trypsinising the cells, treatment with 0.5 ml ice-cold 0.1 M glycin-HCl buffer, pH 2.5 for 6 min at 0° C. was used to extract the membrane bound fraction of the conjugate. […] The remaining radioactivity, considered to be internalized radioactivity, was collected by treatment with 0.5 ml 1 M NaOH solution at 37° C. for about 60 min. […] The collected fractions were measured in an automated gamma counter.
(§4) In this study, the degree of internalization was estimated by acid wash. Radioactivity, which was removed from cells by an acidic buffer was considered as membrane-bound, and the rest as internalized. […] More than 50% of the radioactivity was internalized at 30 min after the start of incubation in the case of glioma U343 cells.

Series [4] relates to U343 cells. The experiment in a line: Cellular retention of radioactivity after interrupted incubation, U343 cells. It is filed as cell-based, human. The following applies: 4 hours after interrupted incubation.
Source text: as §2, with “cell. The cells were cultured in Ham's F10 medium (Biochrom Kg), supplemented with 10% fetal calf serum (Sigma), L-glutamine (2 mM) and PEST (penicillin 100 IU/ml and streptomycin 100 μg/ml) both from Biochrom Kg. During cell culture and cell experiments (unless otherwise stated) cells were grown at 37° C. in incubators with humidified air, equilibrated with 5% CO2.” for “cell.”
(§5) After the incubation, the cells were washed thoroughly to eliminate unbound conjugate, and the incubation was then continued in fresh cell culture medium. After 0.5-4 h, the cells were trypsinized, counted and measured for radioactivity, as described above.
(§6) An initial drop of radioactivity, which was most likely due to dissociation of membrane-bound conjugates, was followed by a relatively constant amount of cell-bound ^68Ga.

Series [5] deals with A431 cells. The series can be described thus: Cellular retention of radioactivity after interrupted incubation, A431 cells. It is filed as cell-based, human. To be noted: 4 hours after interrupted incubation.
Source text: as §2, with “cell. The cells were cultured in Ham's F10 medium (Biochrom Kg), supplemented with 10% fetal calf serum (Sigma), L-glutamine (2 mM) and PEST (penicillin 100 IU/ml and streptomycin 100 μg/ml) both from Biochrom Kg. During cell culture and cell experiments (unless otherwise stated) cells were grown at 37° C. in incubators with humidified air, equilibrated with 5% CO2.” for “cell.”
as §5, §6

The format of series [6] is physicochemical. The method, then: Analytical liquid chromatography (LC) was performed using a HPLC system from Beckman (Fullerton, Calif., USA) consisting of a 126 pump, a 166 UV detector and a radiation detector coupled in series. Data acquisition and handling was performed using the Beckman System Gold Nouveau Chromatography Software Package. The column used was a Vydac RP 300 Å HPLC column (Vydac, USA) with the dimensions 150 mm×4.6 mm, 5 μm particle size. The applied gradient elution had the following parameters: A=10 mM TFA; B=70% acetonitrile (MeCN), 30% H2O, 10 mM TFA with UV-detection at 220 nm; flow was 1.2 mL/min; 0-2 min isocratic 20% B, 20-90% B linear gradient 8 min, 90-20% B linear gradient 2 min The quantity of ^68Ga-DOTA-hEGF and radio-impurities retained on the column could be obtained by measuring the activity of the sample injected on the column and the fractions collected from the outlet with a crystal scintillation counter. The overall loss on the system was 10%. The measured activity of the fractions of ^68Ga-DOTA-hEGF and hydrophilic radio-impurities were in agreement with the respective values obtained from the HPLC chromatograms. […]
The microwave-accelerated labeling of the conjugates (Scheme 1) was performed using a non-concentrated or a pre-concentrated generator ^68Ga-eluate. […] Pre-concentration of eluate allowed to obtain specific radioactivity of 28 MBq/nmol. […]

For series [7], the system named is U343 cells. The experiment in a line: Cellular internalization by acid wash, U343 cells. It is filed as cell-based, human.
Source text: as §2, §3, §4

Entries after “also recorded” stand apart in the source; their conditions may differ. Read-outs that look alike come from different tables or passages of the source.

With “^68Ga-DOTA-EGF: recombinant human epidermal growth factor conjugated to the chelator DOTA (one to three DOTA) and labeled with 68Ga; PET tracer”, in series [1] (0.16 nmol injected, liver, kidneys, tumours, pharmacokinetic curves), the “organ distribution by microPET” value was “Prominent uptake was observed in the liver and kidneys; also recorded: rapid distribution”. The “tumor visualization by microPET” value in series [1] (30 min after administration of 2.0 MBq, right and left leg tumors) is “visible with clear contrast”. Also, the “radioactivity remaining in the circulation (blood)” value in series [2] (0.016 nmol per animal) and in series [2] (0.16 nmol per animal) was “less than 1 % IA/g” each time. Moreover, the figures for the “uptake in the A431 tumour xenograft” value in series [2] (0.016 nmol per animal) and in series [2] (0.16 nmol per animal) were 1.51±0.16 % IA/g and 2.69±0.29 % IA/g, respectively. Besides, the internalization rate entry in series [3] is reported as “rapid process”; in series [7] (acid wash, compared to A431), “faster”. The “cell-associated radioactivity (retention)” value in series [4] and in series [5] was “more than 70%” each time. Further, the “stability in PBS” value in series [6] is “stable”. Besides, the radioactivity internalized result in series [7] (30 min after the start of incubation) was “More than 50%”.

For the origin of these results see patent US20110117012A1, “RADIOLABELED GALLIUM COMPLEXES, METHODS FOR SYNTHESIS AND USE FOR PET IMAGING OF EGFR EXPRESSION IN MALIGNANT TUMORS” (priority 2003, published 2011).
